# Legend:
# [1] = biological target: HLA-A2 with HPV16E7:11-19 alanine scanning peptide […] (L13A) on pulsed T2 cells (human; human papillomavirus type 16); experiment: FACS, T2, Ala scan
# Method: (§1) Alanine scanning was performed to determine which residues in the HPV16E7:11-19 peptide were critical for antibody binding. T2 cells were pulsed with alanine scanning peptides and stained with HPV16E7:11-19 antibodies as described above.
# [2] = biological target: HLA-A2 with HPV16E7:11-19 alanine scanning peptide […] (L15A) on pulsed T2 cells (human; human papillomavirus type 16); experiment: FACS, T2, Ala scan
# Method: as §1
# [3] = biological target: T1, HLA-A2 with off-target peptide CHPF:463:471 on pulsed T2 cells (human); experiment: FACS, T2, 10 ug/ml;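 also: Peptide-pulsed T2 cells held overnight at 26 °C, then stained with antibodies at 10 µg/ml, WI values reported as fold change versus unstained cells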
# T1 construct: also called Chondroitin sulfate synthase 2
# Method: (§2) T2 cells were then incubated overnight at 26° C., washed in staining buffer and stained with the indicated antibodies at a concentration of 10 μg/ml following the protocol described above. WI values were calculated and presented as fold change over unstained cells.
# [4] = biological target: T2, HLA-A2 with off-target peptide SH3GLB1:244-252 on pulsed T2 cells (human); experiment: FACS, T2, 10 ug/ml;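 also: Peptide-pulsed T2 cells held overnight at 26 °C, then stained with antibodies at 10 µg/ml, WI values reported as fold change versus unstained cells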
# T2 construct: also called Endophilin-B1
# Method: as §2
# [5] = biological target: HLA-A2 with off-target peptide CAMKK1:388-396 on pulsed T2 cells (human); experiment: FACS, T2, 10 ug/ml;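 also: Peptide-pulsed T2 cells held overnight at 26 °C, then stained with antibodies at 10 µg/ml, WI values reported as fold change versus unstained cells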
# Method: as §2
# [6] = biological target: HLA-A2 with off-target peptide SBK3:285-293 on pulsed T2 cells (human); experiment: FACS, T2, 10 ug/ml;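 also: Peptide-pulsed T2 cells held overnight at 26 °C, then stained with antibodies at 10 µg/ml, WI values reported as fold change versus unstained cells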
# Method: as §2
# [7] = biological target: HLA-A2 with off-target peptide PKD1:2694-2702 on pulsed T2 cells (human); experiment: FACS, T2, 10 ug/ml
# Method: as §2
# [8] = biological target: T3, HLA-A2 with off-target peptide CBL:83-91 on pulsed T2 cells (human); experiment: FACS, T2, 10 ug/ml
# T3 construct: also called E3 ubiquitin-protein ligase CBL
# Method: as §2
# [9] = biological target: T4, HLA-A2/HPV16E7:11-19 on peptide-pulsed T2 cells (human; human papillomavirus type 16); experiment: FACS, T2, 10 ug/ml
# Method: as §2
# [10] = biological target: HLA-A2 with off-target peptide USP47:691-699 on pulsed T2 cells (human); experiment: FACS, T2, 10 ug/ml
# Method: as §2
# [11] = biological target: HLA-A2 with off-target peptide PPP4R4:20-28 on pulsed T2 cells (human); experiment: FACS, T2, 10 ug/ml
# Method: as §2
# [12] = biological target: HLA-A2 with off-target peptide NBR1:357-365 on pulsed T2 cells (human); experiment: FACS, T2, 10 ug/ml
# Method: as §2
# [13] = biological target: monomeric HLA-A2:HPV16E7(11-19) peptide complex, soluble (human; human papillomavirus type 16); experiment: SPR 25C, mAb captured
# [14] = biological target: T4, HLA-A2/HPV16E7:11-19 on peptide-pulsed …; experiment: MSD cell binding, T2
# Method: To determine anti-HLA-A2/HPV16E7 monoclonal antibody specificity, peptide-pulsed T2 cells loaded with target or off-target peptides (identified in the previous Example) were used. […] Approximately 6 million T2 cells per T-75 flask were cultured for 24 hours at 26° C. in 9 mL of AIM V® Medium containing 10 μg of human b2m and 100 μg of HPV16E7 peptide or off-target peptide (Tables 6 and 7). Peptide-loaded T2 cells were washed once with PBS without Ca2+/Mg2+ and counted. Approximately 10,000 cells per well of the peptide-loaded T2 or untreated T2 in cell washing buffer were seeded into the 96-well carbon electrode plates (MULTI-ARRAY high bind plate, MSD) and incubated for 1 hour at 37° C. to allow cells to adhere to the plate. Nonspecific binding sites were blocked using 2% BSA (w/v) in PBS for 1 hour at room temperature. […] Plates were incubated for 1 hour at room temperature, then washed to remove the unbound antibody using an AquaMax2000 plate washer (MDS Analytical Technologies). Plate-bound antibodies were detected with SULFO-TAG™-conjugated goat polyclonal anti-human IgG antibody specific for the Fc gamma fragment (Jackson Immunoresearch, Meso Scale Discovery) for 1 hour at room temperature. After washes, the plates were developed with the Read Buffer (MSD) according to manufacturer's recommended procedure, and the luminescent signals were recorded with a SECTOR Imager 600 (Meso Scale Discovery) instrument. The luminescence intensity, measured in relative light units (RLU), was recorded to indicate the binding intensity of each antibody at the range of concentrations.
Binder,FACS binding (fold over unstained) [1] [fold],FACS binding (fold over unstained) [2] [fold],Fold change over unstained [3] [fold],Fold change over unstained [4] [fold],Fold change over unstained [5] [fold],Fold change over unstained [6] [fold],Fold change over unstained [7] [fold],Fold change over unstained [8] [fold],Fold change over unstained [9] [fold],Fold change over unstained [10] [fold],Fold change over unstained [11] [fold],Fold change over unstained [12] [fold],Kd [13] [nM],koff [13] [s⁻¹],kon [13] [M⁻¹ s⁻¹],t½ [13] [min],EC50 [14] [nM]
"H4sH17675P (antibody, V domains shown) VH: EVQLVESGGGLVQPGASLRLSCEASGFTLSFYAMHWVRQAPGKELEYVSGISGNGNSIYYRDSVKGRFTISRDNSKNTLYLQMGSVGAEDMAVYYCARSYSSGNSYYYYYGMDVWGQGTTVTVSS VL: DIQMTQSPSSLSASVGDRITITCRASQSISSYLNWYQQKPGKAPNLLIYAASNLQSGVPSRFSGSGSGTDFTLTISSLQPEDFATYYCQQSYSTPPITFGQGTRLEIKR",527,1150,5,10.5,2.4,2.9,2.9,4.9,1200,13.3,5.5,2.2,23.1,0.00138,59900,8.4,1.1
"H4sH17364N (antibody, V domains shown) VH: EVQLLESGGGLVQPGGSLRLSCAASGFTFSSYAMTWVRQAPGKGLEWVSVISGSGSETYYADSVKGRFTISRDNSKNTLYLQMNSLRAEDTAVYYCVKDSSYRSSSRAYYYYGMDVWGLGTTVTVSS VL: DIQMTQSPSSLSASVGDRVTITCRASQSISSYLNWYQQKPGKAPKLLIYAVSILQSGVPSRFSGSGSGTDFTLTISSLQPEDFATYSCQQTYSTPPITFGQGTRLEIKR",490,1010,10.9,15.2,1,0.8,1,23.9,986,1.3,9,3,18.3,0.00157,85600,7.4,2
"H4sH17363N (antibody, V domains shown) VH: EVQLLESGGGLVQPGGSLRLSCAASGFTFSSYAMTWVRQAPGMGLEWVSVISGSGSETYYADSVKGRFTISRDNSKNTLYLQMNSLRAEDTAVYYCVKDSSYRSSSRAYYYYGMDVWGLGTTVTVSS VL: DIQMTQSPSSLSASVGDRVTITCRASQSISSYLNWYQQKPGKAPKLLIYAVSILQSGVPSRFSGSGSGTDFTLTINSLQPEDFATYSCQQTYSTPPITFGQGTRLEIKR",530,1020,7.4,13.6,2,0.4,1.2,19.5,1000,0.6,6.1,3.6,17.6,0.00154,87200,7.5,2.1
"H4sH17672P (antibody, V domains shown) VH: EVQLVESGGGLVQPGASLRLSCEASGFTLSFYSMHWVRQAPGRELEYVSGISGNGNNIYYRDSVKGRFTISRDNSKNTLNLQMGSVRAEDMGVYYCARSYSSGNSYNYYYGMDVWGQGTTVTVSS VL: DIQMTQSPSSLSASVGDRVTITCRASQTISSYLNWYQQKPGKAPKLLIYAVSNLQSGVPSRFSGSGSGTDFTLTISSLQPEDFATYYCQQSYSTPPITFGQGTRLEIK",–,–,–,–,–,–,–,–,–,–,–,–,6.37,0.000819,129000,14.1,0.45
"H4sH17930N (antibody, V domains shown) VH: EVQLVESGGGLVQPGGSLRLSCAASGFTFSYYALHWVRQAPGKGLEYVSAISGNGGSTYYADSVKGRFTISRDKSMSTVYLQVGSLRAEDMAVYYCARSYASSSDYHYYYGMDVWGQGTTVTVSS VL: not shown",–,–,–,–,–,–,–,–,–,–,–,–,10.2,–,–,14.5,3.1
"H4sH17930N2 (antibody, V domains shown) VH: EVQLVESGGGLVQPGGSLRLSCAASGFTFSYYALHWVRQAPGKGLEYVSAISGNGGSTYYADSVKGRFTISRDKSMSTVYLQVGSLRAEDMAVYYCARSYASSSDYHYYYGMDVWGQGTTVTVSS VL: not shown",–,–,–,–,–,–,–,–,–,–,–,–,9.57,–,–,14.6,–
"H4sH21079P (antibody, V domains shown) VH: EVQLVESGGGLVKPGGSLRLSCAASGFTFSNAWMSWVRQAPGKGLEWVGRIKTRADGGTTDYAAPVKGRFTISRDDSKNTLYLQLNSLKTEDTAVYYCTSHNWNYEDFDYWGQGTLVTVSS VL: DIQMTQSPSSLSASVGDRVTITCRASQSISNYLNWYQQKPGKAPKLLIYAASSLQSGVPSRFSGSGSGTDFTLTISSLQPEEFATYYCQQSYSIPYTFGQGTKLEIK",–,–,–,–,–,–,–,–,–,–,–,–,290,0.0109,37400,1.1,1.1
"H4sH17670P (antibody, V domains shown) VH: EVQLVESGGDLVQPGTSLRLSCEASGFTLSFYAMYWVRQAPGKELELVSGISGNGESMFYGNSVKGRFSISRDNSKNTLYLQMGSVRAEDMAVYYCARAYASGNSYFFYYGMDVWGQGTTVTVSS VL: not shown",–,–,–,–,–,–,–,–,–,–,–,–,17.5,–,–,–,1.3
"H4sH21064P (antibody, V domains shown) VH: EVQLVESGGGLVQPGGSLRLSCAASGFTFTFYAMHWVRQAPGKGLEYVSGISSNGGSTKYADSVKGRFTISRDNSKNTLYLQMGSLRAEDLAVYYCARSYASSSDYHYYYGMDVWGQGTTVTVSS VL: not shown",–,–,–,–,–,–,–,–,–,–,–,–,14.4,–,–,14.6,–
"H4sH21080P (antibody, V domains shown) VH: EVQLVESGGGLVQPGGSLRLSCAASGFTFSSYAMSWVRQAPGKGLEWVSGISGSGGTTYDADSVKGRFTISRDNSKNTLYLQMHSLRAEDTAAYYCAKDWNYGPYYYFGMDVWGQGTTVTVSS VL: not shown",–,–,–,–,–,–,–,–,–,–,–,–,218,0.039,179000,0.3,0.22

# Reference: patent US20220001000A1 (Regeneron, published 2022)
